Article PMC5719032, “Differentially evolved glucosyltransferases determine natural variation of rice flavone accumulation and UV-tolerance” (Nature Communications, 2017)

B1: OsUGT707A2 (Oryza sativa Japonica Group) (protein)
chain: MAPAMASSAATVVLIPFCVSGHLTPMLEVGKRMLRSRCCGDDDDGRPAMSLTVLLAQLPESHRAPEIDEIIRREAAGASEHSGFDVRFHCLPAEELPDFRGGEDFISRFMQQHASHAREAIAGLESRVAAVVLDWFCTTLLDVTRDLGLPGYVFFTSAASMLSLLLRLPALDKEVAVDFEEMGGAVDLPGLPPVPAALLPTPVMKKGCNYEWLVYHGSRFMEAAGIIVNTVAELEPAVLEAIADGRCVPGRRVPAIYTVGPVLSFKTPPEKPHECVRWLDAQPRASVVFLCFGSMGSFAPPQVLEIAAGLERSGHRFLWVLRGRPPAGSPYPTDADADELLPEGFLERTKGRGMVWPTWAPQKDILAHAAVGGFVTHGGWNSTLESLWHGVPMAPWPLYAEQHLNAFELVRDMGVAVEMEVDRKRGNLVEAAELERAVRCLMDEGSEEGRMAREKAAAAKAACRNAVDGGGSSIAALRKLTQEMAHMSSI
notes: full cDNA in pGEX-6p-1, N-terminal GST fusion, E. coli BL21(DE3), glutathione Sepharose purified
B2: OsUGT706D1 (Oryza sativa Japonica Group) (protein)
chain: MESKPSRNVVLYAAMGAGHLLPMVELAKLFLTRGLDVTIAVPATPGSGTTGSPTIAGIAASNPSITFHHLPPPPSCADPDPNPLLLMLDVLRRSVPSLASLLRSIPSVAALVLDIFCAEAVDAAAALHVPAYIYFTSAAGAFAASLGLMHHYSTTTTNLRDMGKALLRFPGVPPIPASDMPSLVQDREGRFYKARVKLYARAMEASGVLLNTYEWLEARAMGALREGACSPDRPTPPVYCVGPLVASGEEEGGGVRHACLAWLDAQPARSVVFLCFGSMGSFSAAQLKEIARGLESSGHRFLWVVRSPRQDPANLLEHLPEPDLAALLPEGFLERTADKGMVVKSWAPQAKVLRHAATAAFVTHCGWNSTLEGITAGVPLLCWPLYAEQRMNKVFIVEEMKVGVVIDGYDEEMVSAEEVEAKVRLVMESEEGGKLLERLAVARAKAVEALAEEGPSRVAFDEFIDRLVTSE
notes: as for B1

Tests used:
[1] = substrate: O=c1cc(-c2ccc(O)cc2)oc2cc(O)cc(O)c12; assay: purified protein; details: 1.5 mM UDP-glucose, 5 mM MgCl2, Tris-HCl pH 7.4, 37 °C
[2] = substrate: O=c1c(O)c(-c2ccc(O)cc2)oc2cc(O)cc(O)c12; assay: purified protein; details: 1.5 mM UDP-glucose, 5 mM MgCl2, Tris-HCl pH 7.4, 37 °C, 3-O-glucosylation
[3] = substrate: O=c1cc(-c2ccc(O)c(O)c2)oc2cc(O)cc(O)c12; assay: purified protein, by the assay type; set-up: HPLC glucoside product formation by recombinant GST-UGT, 1.5 mM UDP-glucose, Michaelis-Menten fit; details: pH 8.0; 20.0 °C
Experimental: (§1) To determine the kinetic constants of UGTs for flavonoid acceptors, their activities were determined using 0 to 400 μM different flavonoids at a fixed concentration of 1.5 mM UDP-glucose. Flavonoids were purchased from BioBioPha Co., Ltd (www.biobiopha.com/) and UDP-sugars were purchased from Sigma-Aldrich, USA. All Kinetic parameters were calculated using Michaelis-Menten model (Sigma Plot, version 12.5). All the reactions were run in duplicate, and each experiment was repeated twice. The full cDNA of UGTs from Nipponbare (O. sativa L. spp. japonica) were cloned into the pGEX-6p-1 expression vector (Novagen) with a glutathione S-transferase tag. Recombinant proteins were expressed in BL21 (DE3) cells (Novagen) following induction by addition of 0.1 mM isopropy-β-D-thiogalactoside (IPTG) and growing continually for 16 h at 20 °C. Cells were collected and pellets were resuspended in lysis buffer (50 mM Tris-HCl, pH 8.0, 400 mM NaCl). The cells were disrupted by the high pressure cracker and cell debris was removed by centrifugation (14000 g, 1 h). Glutathione Sepharose 4B agarose (GE Healthcare) was added to the supernatant containing the target proteins. After incubation for 1 h, the mixture was transferred into a disposable column and washed extensively with lysis buffer (5 column volumes). Target proteins in collections were confirmed by SDS-PAGE and purified recombinant proteins were selected for enzyme assays and kinetics determination.

[4] = substrate: O=c1c(O)c(-c2ccc(O)c(O)c2)oc2cc(O)cc(O)c12; assay: purified protein, by the assay type; set-up: HPLC glucoside product formation by recombinant GST-UGT, 1.5 mM UDP-glucose, Michaelis-Menten fit; details: pH 8.0; 20.0 °C
Experimental: as §1

Protein	Km ([1]; 5-O-glucosylation) [µM]	kcat ([1]; 5-O-glucosylation) [s⁻¹]	Km [2] [µM]	kcat [2] [s⁻¹]	Km [3] [µM]	kcat [3] [s⁻¹]	kcat/Km [3] [M⁻¹ s⁻¹]	Km [4] [µM]	kcat [4] [s⁻¹]	kcat/Km [4] [M⁻¹ s⁻¹]	Km ([1]; 7-O-glucosylation) [µM]	kcat ([1]; 7-O-glucosylation) [s⁻¹]
B1	8.9 ± 1.8	0.4 ± 0.06	6.7 ± 0.7	0.20 ± 0.01	1.5 ± 0.5	0.05 ± 0.01	30000	5.1 ± 0.6	0.06 ± 0.01	10000		
B2			16.8 ± 1.3	0.4 ± 0.01	11.6 ± 0.35	0.4 ± 0.2	40000	11.9 ± 1.9	0.07		17.7 ± 1.3	0.7 ± 0.02
